The record followed here is US20240132578A1 (published 2024).

Assay [1] addresses HIV-1 93IN905 Env (clade C pseudovirus) (HIV-1). Put plainly: cell-based or functional assay.
The target in assay [2] is HIV-1 APV-13 Env (clade B pseudovirus) (HIV-1). Put plainly: cell-based or functional assay.
Assay [3] addresses HIV-1 IAVI-C18 Env (clade C pseudovirus) (HIV-1). Put plainly: cell-based or functional assay.
Assay [4] addresses HIV-1 92RW020 Env (clade A pseudovirus) (HIV-1). Put plainly: cell-based or functional assay.
The target of assay [5] is HIV-1 94UG103 Env (clade A pseudovirus) (HIV-1). Put plainly: cell-based or functional assay.
The target in assay [6] is HIV-1 JRCSF Env (clade B pseudovirus) (HIV-1, UniProt P20871 32-848). Put plainly: cell-based or functional assay.
Assay [7] concerns the target HIV-1 93UG077 Env (clade A pseudovirus) (HIV-1). Put plainly: cell-based or functional assay.
Assay [8] has as its target HIV-1 APV-17 Env (clade B pseudovirus) (HIV-1). Kind of assay: cell-based or functional assay.
Assay [9] addresses HIV-1 92TH021 Env (CRF01_AE pseudovirus) (HIV-1). Put plainly: cell-based or functional assay.
Assay [10] deals with HIV-1 IAVI-C3 Env (clade C pseudovirus) (HIV-1). Put plainly: cell-based or functional assay.
The target of assay [11] is HIV-1 IAVI-C22 Env (clade C pseudovirus) (HIV-1). Kind of assay: cell-based or functional assay.
In assay [12] the target is HIV-1 APV-6 Env (clade B pseudovirus) (HIV-1). Put plainly: cell-based or functional assay.
Assay [13] concerns the target aMLV envelope (negative control pseudovirus). Kind of assay: cell-based or functional assay.
In assay [14] the target is HIV-1 92BR020 Env (clade B pseudovirus) (HIV-1). Put plainly: cell-based or functional assay.
Assay [15] deals with HIV-1 92UG005 Env (clade D pseudovirus) (HIV-1). Kind of assay: cell-based or functional assay.
In assay [16] the target is HIV-1 92UG024 Env (clade D pseudovirus) (HIV-1). Put plainly: cell-based or functional assay.
Assay [17] concerns the target HIV-1 CMU02 Env (CRF01_AE pseudovirus) (HIV-1). Kind of assay: cell-based or functional assay.
Assay [18] deals with T1, recombinant, monomeric gp120 JR-CSF (HIV-1, UniProt P20871 32-503).
T1 construct: domain: gp120; also called JR-CSF gp120
Put plainly: screening ELISA on recombinant gp120 (column mAb Specificity). On the technique in general: An ELISA detects its analyte on a solid surface through an enzyme-linked reagent.

The next assay concerns the target T2, recombinant gp41 HxB2 (HIV-1, UniProt P04578 541-682).
T2 construct: domain: gp41
Put plainly: screening ELISA on recombinant gp41 (column mAb Specificity).

The target in assay [19] is T3, V1/V2 deleted HIV-1JR-CSF Env expressed on transfected cells (HIV-1 strain JR-CSF, UniProt P20871 32-848).
T3 construct: whole, on cells; also called variable loop deleted HIV-1JR-CSF variant (V1/V2)
Kind of assay: flow cytometry on transfected 293T cells (FIG. 13E). For orientation: In flow cytometry, cells or beads pass a laser one at a time.

The target of assay [20] is T4, V3 deleted HIV-1JR-CSF Env expressed on transfected cells (HIV-1 strain JR-CSF, UniProt P20871 32-848).
T4 construct: whole, on cells; also called variable loop deleted HIV-1JR-CSF variant (V3)
The description is as above.

Another assay deals with T5, recombinant gp41HxB2 (HIV-1 clone HxB2, UniProt P04578 541-682).
T5 construct: domain: gp41
Put plainly: ELISA, initial screen of B cell culture supernatants.

Assay [21] concerns the target T6, recombinant, monomeric gp120JR-CSF (HIV-1 isolate JR-CSF, UniProt P20871 32-503).
T6 construct: domain: gp120; also called JR-CSF gp120; JR-CSFgp120
Described as above.

Assay [22] has as its target T7, HIV-1 YU2 gp160 expressed on the cell surface (HIV-1 strain YU2, UniProt P35961 32-843).
T7 construct: whole, on cells
Put plainly: flow cytometry on transfected cells (FIG. 8).

The target of assay [23] is HIV-1 94UG103 envelope protein (Env) on pseudotyped virus (HIV-1 strain 94UG103). Put plainly: cell-based or functional assay.
In assay [24] the target is aMLV envelope on pseudotyped virus (negative control) (aMLV). Put plainly: cell-based or functional assay.
The target of assay [25] is HIV-1 92BR020 envelope protein (Env) on pseudotyped virus (HIV-1 strain 92BR020). Kind of assay: cell-based or functional assay.
For assay [26], the target named is HIV-1 NL43 envelope protein (Env) on pseudotyped virus (HIV-1 strain NL43). Put plainly: cell-based or functional assay.
In assay [27] the target is HIV-1 93IN905 envelope protein (Env) on pseudotyped virus (HIV-1 strain 93IN905). Put plainly: cell-based or functional assay.
In assay [28] the target is HIV-1 92TH021 envelope protein (Env) on pseudotyped virus (HIV-1 strain 92TH021). Kind of assay: cell-based or functional assay.
Assay [29] addresses HIV-1 IAVI_C22 envelope protein (Env) on pseudotyped virus (HIV-1 strain IAVI C22). Put plainly: cell-based or functional assay.
The target in assay [30] is HIV-1 JR-CSF envelope protein (Env) on pseudotyped virus (HIV-1 isolate JR-CSF, UniProt P20871 32-848). Put plainly: cell-based or functional assay.
Assay [31] concerns the target HIV-1 SF162 envelope protein (Env) on pseudotyped virus (HIV-1 isolate SF162, UniProt P19550 32-847). Kind of assay: cell-based or functional assay.

B1: 1443_C16 (PG16) (TCN-116) (antibody, V domains shown)
VH: QEQLVESGGGVVQPGGSLRLSCLASGFTFHKYGMHWVRQAPGKGLEWVALISDDGMRKYHSDSMWGRVTISRDNSKNTLYLQFSSLKVEDTAMFFCAREAGGPIWHDDVKYYDFNDGYYNYHYMDVWGKGTTVTVSS
VL: QSALTQPASVSGSPGQTITISCNGTSSDVGGFDSVSWYQQSPGKAPKVMVFDVSHRPSGISNRFSGSKSGNTASLTISGLHIEDEGDYFCSSLTDRSHRIFGGGTKVTVLG
For B1, the “IC50 (µg/mL), pseudovirus neutralization” value was 0.1 µg/mL in [1]; more than 50 µg/mL in [2]; 0.007 µg/mL in assay [3]; 0.004 µg/mL in assay [4]; 0.008 µg/mL in assay [5]; less than 0.0025 µg/mL in assay [6]. Further, the “IC50 (µg/mL), pseudovirus neutralization” value in [7] is more than 50 µg/mL; in assay [8], more than 50 µg/mL; in assay [9], 0.13 µg/mL; in assay [10], 14.8 µg/mL; in assay [11] it was 0.069 µg/mL; in [12] it was 0.08 µg/mL. The “IC50 (µg/mL), pseudovirus neutralization” value in assay [13], in assay [14], in assay [15], in assay [16] and in [17] was more than 50 µg/mL each time. Moreover, the binding result (in [18]; in the assay with recombinant gp41 HxB2) was “no binding” each time.

B2: 1443_C16 (PG16) (TCN-116) (antibody, V domains shown)
VH: B1 VH
VL: B1 VL
With B2, the binding result is recorded as “no binding” in assay [19]; “no binding” in [20]; “no binding” in the assay with recombinant gp41HxB2; “no binding” in [21]; “binds” in assay [22].

B3: 1496_C09 (PG9) (TCN-109) (antibody, V domains shown)
VH: QRLVESGGGVVQPGSSLRLSCAASGFDFSRQGMHWVRQAPGQGLEWVAFIKYDGSEKYHADSVWGRLSISRDNSKDTLYLQMNSLRVEDTATYFCVREAGGPDYRNGYNYYDFYDGYYNYHYMDVWGKGTTVTVSS
VL: QSALTQPASVSGSPGQSITISCNGTSNDVGGYESVSWYQQHPGKAPKVVIYDVSKRPSGVSNRFSGSKSGNTASLTISGLQAEDEGDYYCKSLTSTRRRVFGTGTKLTVLG
As for B3, the “IC50 (µg/mL), pseudovirus neutralization” value in assay [2] is more than 50 µg/mL; in assay [3], 0.05 µg/mL; in [4], 0.06 µg/mL; in assay [5] it was 0.17 µg/mL; in [6] it was less than 0.0025 µg/mL; in [7] it was more than 50 µg/mL. Besides, the “IC50 (µg/mL), pseudovirus neutralization” value was 26.4 µg/mL in assay [8]; 12.9 µg/mL in assay [10]; 0.09 µg/mL in assay [12]; more than 50 µg/mL in assay [13]; more than 50 µg/mL in assay [14]; more than 50 µg/mL in [15]. In [17], the “IC50 (µg/mL), pseudovirus neutralization” value is more than 50 µg/mL. Moreover, the binding result in the assay with recombinant gp41 HxB2 is “no binding”.

B4: 1496_C09 (PG9) (TCN-109) (antibody, V domains shown)
VH: B3 VH
VL: B3 VL
Regarding B4, the binding result in the assay with recombinant gp41HxB2 is “no binding”.

B5: 1460_G14 (PGG14) (antibody, human IgG1, kappa, V domains shown)
VH: QVLLVQSGTEVKKPGSSVKVSCQASGGAFSSYAFSWVRQAPGQGLEWMGMITPVFGETKYAPRFQGRLTLTAEESLSTTYMELRSLTSDDTAFYYCTRDRRVVPMATDNWLDPWGQGTLVTVSS
VL: DIQLTQSPSSLSASVGDRVTVTCRASQTIHTYLNWYQQIPGKAPKLLIYGASTLQSGVPSRFSGSGSGTDFTLTINSLQPEDFATYYCQQSYSTPRTFGQGTRLDIKR
As to B5, the “IC50, Neutralizing Antibody Assay, Virus/Ab Incubation 1 hour” value was more than 50 µg/mL in [23]; more than 50 µg/mL in [24]; more than 50 µg/mL in assay [25]; 0.17 µg/mL in assay [26]; more than 50 µg/mL in [27]; more than 50 µg/mL in [28]. For the same molecule, the “IC50, Neutralizing Antibody Assay, Virus/Ab Incubation 1 hour” value in assay [29] was more than 50 µg/mL; in assay [30], more than 50 µg/mL; in [31], 0.179 µg/mL. Also, the “IC50, Neutralizing Antibody Assay, Virus/Ab Incubation 18 hour” value in assay [23] is more than 50 µg/mL; in assay [24] it was more than 50 µg/mL; in assay [25], more than 50 µg/mL; in assay [26], 0.05 µg/mL; in assay [27], 3.17 µg/mL; in [28], more than 50 µg/mL. Moreover, the “IC50, Neutralizing Antibody Assay, Virus/Ab Incubation 18 hour” value in assay [29] is more than 50 µg/mL; in assay [30] it was more than 50 µg/mL; in assay [31], 0.0573 µg/mL.
